Experimental data reported in the DeepSol protein solubility set.

assay: soluble on expression in E. coli; label from the status in PepcDB or PDB records

Sequence	soluble on expression in E. coli
MIATGDALNLLSKMTFKRLITLLKVFVSYQYSKITGNVVHPSVPYSIAIEPTTSCNLRCPECPSGLRSFTRPTGMLNIAMFSKIIDELYQQISYLIFYFQGEPYLNTSFLEMVKYASSKGIYTATSTNAHYLTDENARKTVESGLDRLIISIDGTTQEVYEQYRIGGSLEKVLEGTKNILAWKKKLHASTPHVIFQFLVVKPNQHQLKEVKKMAKELGVGEVRFKTAQIHDYENGSPLIPDIDKYARYRKNADNTYSIKNSLLNHCWKMWHSCVITWDGKIVPCCFDKDAHLVMGELKTNTFKEIWNSAPYIQFRKSLLKSRSEIDMCKNCTEGTTVWA	not soluble
MIDELATKANVALKAMEDFTQEQVDHIVHQMAMAALDQHMPLAKMAVEETGRGIYEDKAIKNMYASEYIWNNIKHDKTVGVINKDEQTGLMEIAEPVGVVCGVTPTTNPTSTTIFKSLIALKTRNPIVFAFHPSAQKCSAEAARIVRDAAIAAGAPENCIQWIEQPSIDATSALMNHPGIAIVLATGGAGMVKSAYSTGKPALGVGPGNVPAYIEKTAKVKRAVNDLIVSKSFDNGMICASE	not soluble
MIDFSNIETYWPMTSSAFGLFITQGGLKPIFTSLNHMWYSKYGYLTERKAKLKEIENEYIYEIEKRKLENQEKFKNEIDCEFSKIPQTSLKEPVEYILYPAINESEQYLSNETLRNMFARTIASTFNQDKEKDLHSAFVQIIKQMTPLDAQNLLLINQEGNNLIANLQIGVHYSKENLSGTVNKANNIYLSKLDYSPDIIASSIDNLTRLGLIKVDYLHYPLDSNYESIKQTTIYKSLESEINTLNLFKTSNTKYDIKIEKGKVSLTDFGKKFISVCLE	not soluble
MIDGAEVSVSRGKNNPFYFNSDRWFHTLFRNQFGHLRVLQRFDQRSKQMQNLENYRVVEFNSKPNTLLLPHHADADFLLVVLNGRAVLTLVNPDGRDSNILEQGHAQKIPAGTTFFLVNPDDEENLRIIKLAVPVNNPHRFQDFFLSSTEAQQSYLQGFSKNILEASFDSDIKEISRVLFGEEGQQQQQGQESQQEGVIVELKREQIRELTKHAKSSSKKSLSSEDQPFNLRNQKPIYSNKLGRWFEITPEKNPQLRDLDMFIRSVDMKEGSLLLPHYNSKAIVILVINEGKANIELVGQREQQKQQEEQEESWEVQRYRAELSEDDVFIIPATYPVAINATSNLNFFAFGINAENNQRNFLAGEKDNVISEIPTEVLDVTFPASGEKVQKLIKKQSESQFVDAQPEQQEREEARKGGKGPFVY	soluble
MIDISHGHTSCSSHRSSSLPSVFWKIHLSPPLPSFKFKKSTESTQRQTIPKFSSPASSLAPSTPLWSLSSCLLVSEVSFWPGAGFLYNDLVCLDREDHCLSNSASHSCG	soluble
MIDNLIKKEFLAHKEALEKSLEGLQEALKQSVHLLIETLENQGKILICGNGGSASDAQHFAAELTGRYKLERKGLSAISLNTDISALTAIANDYGYEEVFARQVEALGVKNDVLIGISTSGNSKNVLKAYEKAKDLEMKTLSLAGRDGGKMKPLSDMALIVPSDDTPRIQEMHILMIHILCDCIERHFAHKN	not soluble
MIDQFKFLNPQALISIFGKIPKFEESELLDVRLKRDGPTLVIQLMTKENVENKPKRWNKWDVIYVEISFFTIHNLTIKGLGTENIIDYFEINTIEEEGLLKIKCKNQMLVECSFEWAKVEGVTPGLIGLP	not soluble
MIDVIEAGLFTTVQDGGRFGYRHAGVPAGGAMDAWAYRLANALVGNNGDEAVLEATIAGPTLRFRVEAVVAVCGGDFPCTLNGRTFALWKPMAVEPGDVLEVGVCRTGFRAYIAVSGGIDVPPVMGSRSTYVPAQLGGLSGRPLQRGDALPVGVTHGRRVIGRMRWGLASAARRYIGGKTKTVRAVPGPEYDEFTPASRRQFFAARYEVTTQSDRIGYRLSGPTLALVREREMVSEAVVFGTVQVPASGQPIVLMADSQTTGGYPRIAQVAAVDLPILAQARPGDFIQFQPIGPEEAMWLYKEQQQRLARWITAIRRQWEGER	not soluble
MIEFFLPMDKIPTTTHQQKKVTVINGKPHFYEPESLKNARDKFTSLLAQHVPPSKLDGPIRLTVKWLFPKIKGSTNGQYKTTKPDTDNLQKLLKDCMTELGFWNDDAQVASEIIEKFWADTVGIYVKVEEL	not soluble
MIEFNHVSKTFGDQQAVSDLNLHFSEGSFSVLIGTSGSGKSTTLKMINRLVEHDSGTIRFAGEEIRSLPVLELRRRMGYAIQSIGLFPHWTVAQNIATVPQLQKWSRARINDRIDELMALLGLESALRDRYPHQLSGGQQQRVGVARALAADPQVLLMDEPFGALDPVTRGALQQEMTRIHQLLGRTIVLVTHDIDEALRLADHLVLMDGGHVIQQGSPLSMLTSPENDFVQAFFGRSELGVRLLSLRSVGDYVRRHEQLSGDALVEEMTLRDALSMFVARRCDVLPVANQQGEPCGTLHFRDLLSETSPRETTV	not soluble
MIEGHGDDSYKYRHPIRSNFSSNVYNKVNLDGLRAHLCGRISAISAYPEPEPYTLEARLADRHALPAASVCVTNGATEAIYLIAQTFRGTNTAILMPTFSEYADACRMHGHKVTSLYTLDAVPEDVRMVWLCNPNNPTGEVRDKKYLTELIAKHPRVCFVIDQSYEYFTLKELFTAQEAAGFPNVILLHSMTKRYAIPGLRLGYVTAHPGLIGRLRTNRMPWSVNQLAIEAGLYLLSEGIPAGLSMKDYLAECARLKSSLEAIGGLEVWPTDTHFMLVCLRFGKAAALKEYLAREEGILIRDASNFEGLDERFFRIATQTPEENDELVGAIAKWMAE	not soluble
MIEIEINNAQEITSALERLAQATAHRAPLMRSIAGTMESAVAQNFEVGGRPAWKKLKIRQGTPLVDTENLMASITSEYNNNEAIVGTNEPYAAIHQFGGKAGRGRKVAIPARPFLILTPQDEADILEDIQDYFQLLIK	not soluble
MIEVISATALATVQDLGRHGSLGYGVGTSGAMDTLSLRLGNLLLGNAEDAAGIEIPLFPFEVRFVEDCTFAITGAACSAKLDGGRLPGNWAAQARKGQVLKLSYPTTGSRAYLCLAGGVDVPPVLGSRSTQLRGAFGGWQGRALQQGDVIPAGAANQQRAGDFGLESAVAGLPLMLDGLPAIRVLPAAEFDCFSVEAQDTFFAGEWKITTQSNRYGYRMEGTPLLAREALEIRSHGIVPGVIQVPHGGQPIVQMRDAQPSGGYPKFATVIEADLWRLGQAPIGSKVRFVQCSYEQAIEALDTNHAFIEDARRLLALRGLQGHRLEHHHHHH	not soluble
MIFFSVALTTLLVGLSNGCFCPPVISPSCGCGGGGYSSYSGGGYGGGYGGGAINGYATFYRDLTPFRQPYYQTASYPQYQQGPAQSLQQMYQLPNPRYIQPQAPRPQYISRPAPRPAPAPYQPPRVQERPYVQPAAPVAELAETRKNTLHDNGYGEEIERTTYTPVVTAAPVYETDAPTIVTQAPAVEEVPDFDETPVKKGEKDEFYYAYYDDKGNKVGDSRSGTTFAPENVIVEEEATVAPAPASIHMDVTTERVEVANENYDDVVEETQVPVRTSLSPSYTPEVVTSSTVLFMEPRVEAKTVAPAAHENTEVVYEDETVEYEDDGHSETSELPSTKKPQSAEFKRTVQDNQILVDAAENTGEGYRRRNAVNGVRIVKRFRHDERKIHSN	not soluble
MIFGRSQRGKPPVEPVTLKILVAGGFGVGKTTLVGAVSEIRPLRTEELLTEAGRPVDDVSGVEGKHTTTVAMDFGRITLREDLVLYLFGTPGQERFWFMWDELSEGALGAVVLADTRRLEDCFAAIDYFERRSIPFVVGVNCFEGSARYPGETVRQALDLDEDVPLVMCDARDRESVKEVLIGVVQHAMTQAADRRRAVPTLEHHHHHH	not soluble
MIFSVDKVRADFPVLSREVNGLPLAYLDSAASAQKPSQVIDAEAEFYRHGYAAVHRGIHTLSAQATEKMENVRKRASLFINARSAEELVFVRGTTEGINLVANSWGNSNVRAGDNIIISQMEHHANIVPWQMLCARVGAELRVIPLNPDGTLQLETLPTLFDEKTRLLAITHVSNVLGTENPLAEMITLAHQHGAKVLVDGAQAVMHHPVDVQALDCDFYVFSGHKLYGPTGIGILYVKEALLQEMPPWEGGGSMIATVSLSEGTTWTKAPWRFEAGTPNTGGIIGLGAALEYVSALGLNNIAEYEQNLMHYALSQLESVPDLTLYGPQNRLGVIAFNLGKHHAYDVGSFLDNYGIAVRTGHHCAMPLMAYYNVPAMCRASLAMYNTHEEVDRLVTGLQRIHRLLG	soluble
MIGVGKMKQYSNVLDKPLSKGKQEVSLTAFAFLFSELVQYNQTQVDNIAELERRLEDAGYAVGSRVLELLCNREKGNRRETRLLGILSFVHSTVWKVLFGKVADSLEKGTEHEDEYMISEKELLVNRFISIPKDMGTFNCGAFVAGIVKGVLDNAGFPAVVTAHFVPIEGQQRPRTTILIKFADEVLKREARLSQ	soluble
MIGYVLNGEHEEIPYGELMALLEIFNYNGSVERLKRYVITEDSPAKDIVKRSGYIDEGHRIIFRYNLEEKSVDLVDKIVNDFINSFKDFVANIDYPDIDESKSYAVRVLKLHKDEFTKSIDSLRIEKEIGGIIKLKTNAKVNLTKPDILVRVVILENTFFISNVLEMRDREYFQKNRPHLRKYFHPGCMLPKLARAMVNLARVKEGDIVLDPFCGTGGFLIEAGLIGAKLIGCDIDWRMASGTLINLEEYNLLDKVIKVKRLDAKYVKEFLNELNIEKVDAIVTDPPYGISTAKKGEIEKILETLPEVIKDNGYFVFAYPKKIELDMELEGLYKVYIHKGLIRHIHVYKKI	soluble
MIHEVAGDGTKRSFHEKKKMDESYQRNGRTNLEHVPRLKLGKLFIFISASTNKTCLQIDNEITNN	not soluble
MIIDQQLVCYKRLPNWTATTLPEMVTQKHNTKVGTWAKLTILSGTLHFYELDEQGEITAEHLFTPETEIPFVEPQSWHRIAAASDNLECYLSFYCKPEDYMAKKYDTKAHSEVLEAVQSGHIKPGRTLDLGCGHGRNALYLASLGHEVTAVDINNEATQRIQMIADEESYNVRAGYYDINVSALPESETFDFILSTVVFMFLDPNQIPAIIQNMQERTSIGGYNLIVCAMDTEEHPCTMPFPFTFEEGELKNYYSDWELIKYNENLGHLHRLDEHGNPIALQFATMLAKKVTLEHHHHHH	soluble
MIINIRKFREHDLKRVMEIEKESFDKNYPEFLMMHIYTSFPDGFLVAETEDGKIVGYIIALMEWGNGHVVSIAVDSAYQNYGIGNALLSATENFLFNECHAKHCVLEVRFDNKKAREFYYKRNYVDRKVLYNYYDDGADAILMIKRRFDLSGNYPIFVNMW	not soluble
